Measured values: patent publication US20220204585A1 (RUSH UNIVERSITY MEDICAL CENTER, published 2022)
Where a chain is given by its changes, count along the chain named.

B1: Clone 14 149-014-14 (VK-Linker-VH) (scFv)
scFv: DVVMTQSPLSLPATLGQPASISCRSSQSLVYTDGNTYLNWFQQRPGQSPRRLIYKVSNRDSGVPDRFSGSGSGTHFTLKISRVEAEDVGVYYCMQGTHWPPTFGQGTKVEIKEGKSSGSGSESKASEVQLVQSGAEVKKPGASVKVSCKASGGTFSSYAISWVRQAPGQGLEWMGGIIPIFGTANYAQKFQGRVTITADESTSTAYMELSSLRSEDTAVYYCASSGVDYWGQGTLVTVSS
notes: From the naive human scFv phage display library
B2: Clone 6 149-014-6 (VL-linker-VH) (scFv)
scFv: QSVLTQPPSASGTPGQRVTISCSGSSSNIGSNYVSWYQQLPGTAPKLLIYDNNKRPSGIPDRFSGSKSGTSATLGITGLQTGDEADYYCGTWDSSLSALYVFGAGTKLTVLGEGKSSGSGSESKASQVQLQESGPGLVKPSETLSLTCSVSGGSTSSYYWSWIRQPPGKGLEWIGYISNSGSTNYNPSLKSRVTMSIDTSNNQFSLKLSSVTAADTAVYYCASHLGATWRWGQGTLVTVSS
notes: as for B1
B3: Clone 5 149-014-5 (VL-Linker-VH) (scFv)
scFv: SSELTQDPAVSVALGQTVRITCQGDSLRSYYASWYQQKPGQAPVLVIYGKNNRPSGIPDRFSGSTSGNFASLTITGAQAEDGADYYCHSRDSSGNHLVFGGGTKLTVLGEGKSSGSGSESKASEVQLVQSGAEVKKPGESLKISCKGSGYSFTSYWIGWVRQMPGKGLEWMGIIYPGDSDTRYSPSFQGQVTISADKSISTAYLQWSSLKASDTAMYYCARRARGAFDIWGQGTLVTVSS
notes: as for B1
B4: Clone 13 149-014-13 VH only (other)
VH: EVQLLESGGGLVQPGGSLRLSCAASGFTFSSDLMSWVRQAPGKGLEWVSAISGSGGSTYYADSVKGRFTISRDNSKNTLYLQMNSLRAEDTAVYYCAKNEVIFDYWGQGTLVTVSSASTKGLSMFDYWGQGTKVEIK

Tests used:
[1] = biological target: T1, CD11b A-domain CD11bA-D242A/F275S/F302G, construct BZ348014 (human, UniProt P11215 148-337); test: counterscreen phage ELISA on coated antigen
T1 construct: the antigen on which the libraries were enriched; also called BZ348014 antigen
T1 chain: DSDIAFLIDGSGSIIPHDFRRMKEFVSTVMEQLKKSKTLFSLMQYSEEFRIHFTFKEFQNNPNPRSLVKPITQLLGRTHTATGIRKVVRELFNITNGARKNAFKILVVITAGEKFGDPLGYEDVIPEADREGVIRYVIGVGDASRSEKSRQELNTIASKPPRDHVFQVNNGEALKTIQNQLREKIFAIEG
Experimental: (§1) After 2 rounds of enrichment against the primary target, positive binders were identified by phage ELISA and analyzed by restriction mapping & sequencing for identification of unique clones. Small scale phage growths were diluted 1:5 in TBS+casein. Nunc Maxi-Sorp strip wells were coated at ˜5 ug/ml of each test protein overnight at 4° C. and blocked with TBS+casein. The diluted phage were applied and allowed to bind for 1 hour with shaking. The wells were washed 4 times with TBS+0.05% Tween20 and twice with TBS. Bound phage were detected by incubation for 1 hour with anti-M13-HRP and after washing as above, developed with TMB. Absorbance at 450 nm was read after acidification of the wells.

[2] = biological target: T2, CD11b A-domain CD11bA-D140A, construct BZ348008 (human, UniProt P11215 148-337); test: counterscreen phage ELISA on coated antigen
T2 construct: MIDAS residue D140 replaced with alanine (no MIDAS metal)
T2 chain: T1 chain with D9A, A111D, S144F, G171F
Experimental: as §1

[3] = biological target: T3, CD11b A-domain CD11bA-F275S/F302G, construct BZ348013 (human, UniProt P11215 148-337); test: counterscreen phage ELISA on coated antigen
T3 chain: T1 chain with A111D
Experimental: as §1

[4] = biological target: T4, CD11b A-domain CD11bA WT (WT residues 132-321), construct BZ348007 (human, UniProt P11215 148-337); test: counterscreen phage ELISA on coated antigen
T4 construct: Residues numbered on mature CD11b (signal peptide of 16 residues removed); also called His-TEV-CD11b
Experimental: as §1

[5] = biological target: T5, CD11b A-domain CD11bA-D242A, construct BZ348011 (human, UniProt P11215 148-337); test: counterscreen phage ELISA on coated antigen
T5 construct: MIDAS residue D242 replaced with alanine (no MIDAS metal)
T5 chain: T1 chain with S144F, G171F
Experimental: as §1

[6] = biological target: T6, CD11b A-domain CD11bA-D140A/F275S/F302G, construct BZ348010 (human, UniProt P11215 148-337); test: counterscreen phage ELISA on coated antigen
T6 chain: T1 chain with D9A, A111D
Experimental: as §1

[7] = biological target: T1, CD11b A-domain …; test: phage ELISA dilution series, phage diluted 1:5
[8] = biological target: T2, CD11b A-domain CD11bA-D140A, construct …; test: phage ELISA dilution series, phage diluted 1:5
[9] = biological target: T3, CD11b A-domain CD11bA-F275S/F302G, …; test: phage ELISA dilution series, phage diluted 1:5
[10] = biological target: T4, CD11b A-domain CD11bA WT (WT residues …); test: phage ELISA dilution series, phage diluted 1:5
[11] = biological target: T5, CD11b A-domain CD11bA-D242A, construct …; test: phage ELISA dilution series, phage diluted 1:5
[12] = biological target: T6, CD11b A-domain …; test: phage ELISA dilution series, phage diluted 1:5
[13] = biological target: T1, CD11b A-domain …; test: phage ELISA dilution series, phage diluted 1:50
[14] = biological target: T2, CD11b A-domain CD11bA-D140A, construct …; test: phage ELISA dilution series, phage diluted 1:50
[15] = biological target: T3, CD11b A-domain CD11bA-F275S/F302G, …; test: phage ELISA dilution series, phage diluted 1:50
[16] = biological target: T4, CD11b A-domain CD11bA WT (WT residues …); test: phage ELISA dilution series, phage diluted 1:50
[17] = biological target: T5, CD11b A-domain CD11bA-D242A, construct …; test: phage ELISA dilution series, phage diluted 1:50
[18] = biological target: T6, CD11b A-domain …; test: phage ELISA dilution series, phage diluted 1:50
[19] = biological target: T1, CD11b A-domain …; test: phage ELISA dilution series, phage diluted 1:16
[20] = biological target: T2, CD11b A-domain CD11bA-D140A, construct …; test: phage ELISA dilution series, phage diluted 1:16
[21] = biological target: T3, CD11b A-domain CD11bA-F275S/F302G, …; test: phage ELISA dilution series, phage diluted 1:16
[22] = biological target: T4, CD11b A-domain CD11bA WT (WT residues …); test: phage ELISA dilution series, phage diluted 1:16
[23] = biological target: T5, CD11b A-domain CD11bA-D242A, construct …; test: phage ELISA dilution series, phage diluted 1:16
[24] = biological target: T6, CD11b A-domain …; test: phage ELISA dilution series, phage diluted 1:16
[25] = biological target: T1, CD11b A-domain …; test: phage ELISA, phage diluted 1:5 on coated antigen (~5 ug/ml), anti-M13-HRP
Experimental: as §1

Row | Binder | Absorbance at 450 nM [1] | Absorbance at 450 nM [2] | Absorbance at 450 nM [3] | Absorbance at 450 nM [4] | Absorbance at 450 nM [5] | Absorbance at 450 nM [6] | Absorbance at 450 nM [25] | other results
1 | B1 | 1.06 | 0.38 | 0.953 | 0.22 | 0.259 | 0.659 | 0.598 | Absorbance at 450 nM [7]: 0.782; Absorbance at 450 nM [8]: 0.372; Absorbance at 450 nM [9]: 1.38; Absorbance at 450 nM [10]: 0.557; Absorbance at 450 nM [11]: 0.2; Absorbance at 450 nM [12]: 0.046; Absorbance at 450 nM [13]: 0.059; Absorbance at 450 nM [14]: 0.047; Absorbance at 450 nM [15]: 0.078; Absorbance at 450 nM [16]: 0.06; Absorbance at 450 nM [17]: 0.045; Absorbance at 450 nM [18]: 0.04; Absorbance at 450 nM [19]: 0.356; Absorbance at 450 nM [20]: 0.08; Absorbance at 450 nM [21]: 0.278; Absorbance at 450 nM [22]: 0.101; Absorbance at 450 nM [23]: 0.054; Absorbance at 450 nM [24]: 0.038
2 | B2 | 1.25 | 0.058 | 1.3 | 0.567 | 0.169 | 1.51 | 0.641 | 
3 | B3 | 1.69 | 1.85 | 1.65 | 1.78 | 1.77 | 1.74 | 1.37 | 
4 | B4 | 0.866 | 0.228 | 0.954 | 0.169 | 0.183 | 0.495 | 0.499 | 
